Reference: US20250003951A1, “METHOD AND COMPOSITION” (Oxford University Innovation Limited, priority 2021, published 2025)
Each block holds one binder with its values, some of them ahead of it.

Legend:
Conditions in all cases: chains Valpha:Vbeta
[1] = target: HENMT1, germline variant rs36100901 peptide on (human); assay: IFNγ-catch sort of peptide-cultured, peptide-restimulated patient PBMCs, then 10x V(D)J sequencing; TCR not re-expressed; not present in the IFNγ- control (FIG. 10); T cell clone or line
[2] = target: HENMT1, germline variant rs36100901 peptide on (human); assay: as above; remark: listed apart in the source
[3] = target: HENMT1, germline variant rs36100901 peptide on (human); assay: IFNγ-catch sort of peptide-cultured, peptide-restimulated patient PBMCs, then 10x V(D)J sequencing; TCR not re-expressed; not present in the IFNγ- control (FIG. 10); clone with two TRB chains, specific pairing not told; T cell clone or line
[4] = target: HENMT1, germline variant rs36100901 peptide on (human); assay: as above; remark: listed apart in the source
[5] = target: COA6, reference allele at rs10910420 peptide on (human); assay: IFNγ-catch sort of peptide-cultured, peptide-restimulated patient PBMCs, then 10x V(D)J sequencing; TCR not re-expressed; clone 1 was present in the IFNγ- control (FIG. 13); clone with two TRA chains, specific pairing not told; T cell clone or line
[6] = target: COA6, reference allele at rs10910420 peptide on (human); assay: as above; remark: listed apart in the source
[7] = target: COA6, reference allele at rs10910420 peptide on (human); assay: IFNγ-catch sort of peptide-cultured, peptide-restimulated patient PBMCs, then 10x V(D)J sequencing; TCR not re-expressed; clone 2 was absent from the IFNγ- control (FIG. 13); T cell clone or line
[8] = target: COA6, reference allele at rs10910420 peptide on (human); assay: as above; remark: listed apart in the source
[9] = target: COA6, reference allele at rs10910420 peptide on (human); assay: IFNγ-catch sort of peptide-cultured, peptide-restimulated patient PBMCs, then 10x V(D)J sequencing; TCR not re-expressed; clone 1 was present in the IFNγ- control (FIG. 13); clone with two TRA chains, specific pairing not told; T cell clone or line; remark: listed apart in the source
[10] = target: HENMT1, germline variant rs36100901 peptide on (human); assay: IFNγ-catch sort of peptide-cultured, peptide-restimulated patient PBMCs, then 10x V(D)J sequencing; TCR not re-expressed; not present in the IFNγ- control (FIG. 10); clone with two TRB chains, specific pairing not told; T cell clone or line; remark: listed apart in the source
[11] = target: HENMT1, germline variant rs36100901 peptide on (human); assay: as above; remark: listed apart in the source
[12] = target: HENMT1, germline variant rs36100901 peptide on (human); assay: as above; remark: listed apart in the source
[13] = target: ACADS, germline variant rs1799958 peptide on (human); assay: IFNγ-catch sort of peptide-cultured, peptide-restimulated patient PBMCs, then 10x V(D)J sequencing; TCR not re-expressed; not present in the IFNγ- control (FIG. 12); clone with two TRA chains, specific pairing not told; T cell clone or line
[14] = target: ACADS, germline variant rs1799958 peptide on (human); assay: as above; remark: listed apart in the source
[15] = target: ACADS, germline variant rs1799958 peptide on (human); assay: as above; remark: listed apart in the source
[16] = target: ACADS, germline variant rs1799958 peptide on (human); assay: IFNγ-catch sort of peptide-cultured, peptide-restimulated patient PBMCs, then 10x V(D)J sequencing; TCR not re-expressed; not present in the IFNγ- control (FIG. 12); T cell clone or line
[17] = target: ACADS, germline variant rs1799958 peptide on (human); assay: as above; remark: listed apart in the source

B2: OX289 Peptides 73/74 clone 2, TRA with first TRB (protein)
chain 1: ELKVEQNPLFLSMQEGKNYTIYCNYSTTSDRLYWYRQDPGKSLESLFVLLSNGAVKQEGRLMASLDTKARLSTLHITAAVHDLSATYFCAVEETSGSRLTFGEGTQLTVNP
chain 2: EAQVTQNPRYLITVTGKKLTVTCSQNMNHEYMSWYRQDPGLGLRQIYYSMNVEVTDKGDVPEGYKVSRKEKRNFPLILESPSPNQTSLYFCASSLRQGISPEQFFGPGTRLTVL
clone size (percent repertoire) [3]: 25.6% | clone size (percent repertoire) [4]: 25.6%

B3: OX802 Peptides 321/322 clone 1, first TRA with TRB (protein)
chain 1: GQSLEQPSEVTAVEGAIVQINCTYQTSGFYGLSWYQQHDGGAPTFLSYNALDGLEETGRFSSFLSRSDSYGYLLLQELQMKDSASYFCAVLKKGYALNFGKGTSLLVTP
chain 2: EAGVVQSPRYKIIEKKQPVAFWCNPISGHNTLYWYLQNLGQGPELLIRYENEEAVDDSQLPKDRFSAERLKGVDSTLKIQPAELGDSAVYLCASSLEAGDSYEQYFGPGTRLTVT
clone size (percent repertoire) [5]: 47.4% | clone size (percent repertoire) [6]: 47.4%

B5: OX802 Peptides 321/322 clone 1, second TRA with TRB (protein)
chain 1: KDQVFQPSTVASSEGAVVEIFCNHSVSNAYNFFWYLHFPGCAPRLLVKGSKPSQQGRYNMTYERFSSSLLILQVREADAAVYYCAVAGGYNKLIFGAGTRLAVHP
chain 2: EAGVVQSPRYKIIEKKQPVAFWCNPISGHNTLYWYLQNLGQGPELLIRYENEEAVDDSQLPKDRFSAERLKGVDSTLKIQPAELGDSAVYLCASSLEAGDSYEQYFGPGTRLTVT
clone size (percent repertoire) [5]: 47.4% | clone size (percent repertoire) [9]: 47.4%

B6: OX289 Peptides 73/74 clone 3, TRA with first TRB (protein)
chain 1: AQSVTQLDSQVPVFEEAPVELRCNYSSSVSVYLFWYVQYPNQGLQLLLKYLSGSTLVKGINGFEAEFNKSQTSFHLRKPSVHISDTAEYFCAVSGTGANSKLTFGKGITLSVRP
chain 2: GAGVSQSPSNKVTEKGKDVELRCDPISGHTALYWYRQSLGQGLEFLIYFQGNSAPDKSGLPSDRFSAERTGGSVSTLTIQRTQQEDSAVYLCASSDPISGRGDEQFFGPGTRLTVL
clone size (percent repertoire) [3]: 8.67% | clone size (percent repertoire) [10]: 8.67%

B8: OX289 Peptides 73/74 clone 2, TRA with second TRB (protein)
chain 1: ELKVEQNPLFLSMQEGKNYTIYCNYSTTSDRLYWYRQDPGKSLESLFVLLSNGAVKQEGRLMASLDTKARLSTLHITAAVHDLSATYFCAVEETSGSRLTFGEGTQLTVNP
chain 2: EAQVTQNPRYLITVTGKKLTVTCSQNMNHEYMSWYRQDPGLGLRQIYYSMNVEVTDKGDVPEGYKVSRKEKRNFPLILESPSPNQTSLYFCASSERQGITEAFFGQGTRLTVV
clone size (percent repertoire) [3]: 25.6% | clone size (percent repertoire) [12]: 25.6%

B9: OX289 Peptides 75/205 clone 1, first TRA with TRB (protein)
chain 1: GNSVTQMEGPVTLSEEAFLTINCTYTATGYPSLFWYVQYPGEGLQLLLKATKADDKGSNKGFEATYRKETTSFHLEKGSVQVSDSAVYFCALRHKAAGNKLTFGGGTRVLVKP
chain 2: GAVVSQHPSWVICKSGTSVKIECRSLDFQATTMFWYRQFPKQSLMLMATSNEGSKATYEQGVEKDKFLINHASLTLSTLTVTSAHPEDSSFYICSASGPEKLFFGSGTQLSVL
clone size (percent repertoire) [13]: 42.4% | clone size (percent repertoire) [14]: 42.4%

B10: OX289 Peptides 75/205 clone 1, second TRA with TRB (protein)
chain 1: QQQVKQSPQSLIVQKGGISIINCAYENTAFDYFPWYQQFPGKGPALLIAIRPDVSEKKEGRFTISFNKSAKQFSLHIMDSQPGDSATYFCAALFDGGSQGNLIFGKGTKLSVKP
chain 2: GAVVSQHPSWVICKSGTSVKIECRSLDFQATTMFWYRQFPKQSLMLMATSNEGSKATYEQGVEKDKFLINHASLTLSTLTVTSAHPEDSSFYICSASGPEKLFFGSGTQLSVL
clone size (percent repertoire) [13]: 42.4% | clone size (percent repertoire) [15]: 42.4%

Further lines, results first:

clone size (percent repertoire) [1]: 32.3% | clone size (percent repertoire) [2]: 32.3%
B1: OX289 Peptides 73/74 clone 1 (protein)
chain 1: GEDVEQSLFLSVREGDSSVINCTYTDSSSTYLYWYKQEPGAGLQLLTYIFSNMDMKQDQRLTVLLNKKDKHLSLRIADTQTGDSAIYFCAESPSDGQKLLFARGTMLKVDL
chain 2: EAQVTQNPRYLITVTGKKLTVTCSQNMNHEYMSWYRQDPGLGLRQIYYSMNVEVTDKGDVPEGYKVSRKEKRNFPLILESPSPNQTSLYFCASSLRQGISPEQFFGPGTRLTVL

clone size (percent repertoire) [7]: 20% | clone size (percent repertoire) [8]: 20%
B4: OX802 Peptides 321/322 clone 2 (protein)
chain 1: KDQVFQPSTVASSEGAVVEIFCNHSVSNAYNFFWYLHFPGCAPRLLVKGSKPSQQGRYNMTYERFSSSLLILQVREADAAVYYCAVTGGYNKLIFGAGTRLAVHP
chain 2: EAGVVQSPRYKIIEKKQPVAFWCNPISGHNTLYWYLQNLGQGPELLIRYENEEAVDDSQLPKDRFSAERLKGVDSTLKIQPAELGDSAVYLCASSLEAGDSYEQYFGPGTRLTVT

clone size (percent repertoire) [3]: 8.67% | clone size (percent repertoire) [11]: 8.67%
B7: OX289 Peptides 73/74 clone 3, TRA with second TRB (protein)
chain 1: AQSVTQLDSQVPVFEEAPVELRCNYSSSVSVYLFWYVQYPNQGLQLLLKYLSGSTLVKGINGFEAEFNKSQTSFHLRKPSVHISDTAEYFCAVSGTGANSKLTFGKGITLSVRP
chain 2: GAGVSQSPSNKVTEKGKDVELRCDPISGHTALYWYRQSLGQGLEFLIYFQGNSAPDKSGLPSDRFSAERTGGSVSTLTIQRTQQEDSAVYLCASSFGGGAWNEQFFGPGTRLTVL

clone size (percent repertoire) [16]: 13.9% | clone size (percent repertoire) [17]: 13.9%
B11: OX289 Peptides 75/205 clone 3 (protein)
chain 1: GNSVTQMEGPVTLSEEAFLTINCTYTATGYPSLFWYVQYPGEGLQLLLKATKADDKGSNKGFEATYRKETTSFHLEKGSVQVSDSAVYFCALRGRNQGGKLIFGQGTELSVKP
chain 2: GAVVSQHPSRVICKSGTSVKIECRSLDFQATTMFWYRQFPKQSLMLMATSNEGSKATYEQGVEKDKFLINHASLTLSTLTVTSAHPEDSSFYICSARLSSGGGYEQFFGPGTRLTVL
